Measurements taken from the supplement of paper PMC11246515.
± gives the standard deviation of the averaged measurements.

Test: total protein half-life in vivo (active degradation + dilution); higher = more stable protein
[1] = E. coli NCM3722 delta-clpP delta-lon delta-hslV, growth: N-lim chemostat, doubling time 6 h
[2] = E. coli NCM3722 delta-clpP, growth: N-lim chemostat, doubling time 6 h
[3] = wild type E. coli NCM3722, growth: C-lim chemostat, doubling time 3 h
[4] = wild type E. coli NCM3722, growth: C-lim chemostat, doubling time 6 h
[5] = wild type E. coli NCM3722, growth: C-lim chemostat, doubling time 12 h
[6] = wild type E. coli NCM3722, growth: N-lim chemostat, doubling time 12 h
[7] = wild type E. coli NCM3722, growth: P-lim chemostat, doubling time 6 h
[8] = wild type E. coli NCM3722, growth: P-lim chemostat, doubling time 12 h
[9] = E. coli NCM3722 delta-lon, growth: N-lim chemostat, doubling time 6 h
[10] = E. coli NCM3722 delta-hslV, growth: N-lim chemostat, doubling time 6 h
[11] = E. coli NCM3722 delta-smpB, growth: N-lim chemostat, doubling time 6 h
[12] = wild type E. coli NCM3722, growth: N-lim chemostat, doubling time 6 h

Row | Sequence | total protein half-life in vivo [1] [h] | total protein half-life in vivo [2] [h] | total protein half-life in vivo [3] [h] | total protein half-life in vivo [4] [h] | total protein half-life in vivo [5] [h] | total protein half-life in vivo [6] [h] | total protein half-life in vivo [7] [h] | total protein half-life in vivo [8] [h] | total protein half-life in vivo [9] [h] | total protein half-life in vivo [10] [h] | total protein half-life in vivo [11] [h] | total protein half-life in vivo [12] [h]
1 | MKEKTIIIVGGGQAAAMAAASLRQQGFTGELHLFSDERHLPYERPPLSKSMLLEDSPQLQQVLPANWWQENNVHLHSGVTIKTLGRDTRELVLTNGESWHWDQLFIATGAAARPLPLLDALGERCFTLRHAGDAARLREVLQPERSVVIIGAGTIGLELAASATQRRCKVTVIELAATVMGRNAPPPVQRYLLQRHQQAGVRILLNNAIEHVVDGEKVELTLQSGETLQADVVIYGIGISANEQLAREANLDTANGIVIDEACRTCDPAIFAGGDVAITRLDNGALHRCESWENANNQAQIAAAAMLGLPLPLLPPPWFWSDQYSDNLQFIGDMRGDDWLCRGNPETQKAIWFNLQNGVLIGAVTLNQGREIRPIRKWIQSGKTFDAKLLIDENIALKSL | 5.74 ± 1.6 | 1.04 | 3.07 | 2.51 ± 0.54 | 2.78 ± 0.14 | 1.3 | 1.03 | 2.31 ± 0.41 |  |  |  | 
2 | MKFDKPAGENPIDQLKVVGRPHDRIDGPLKTTGTARYAYEWHEEAPNAAYGYIVGSAIAKGRLTALDTDAAQKAPGVLAVITASNAGALGKGDKNTARLLGGPTIEHYHQAIALVVAETFEQARAAASLVQAHYRRNKGAYSLADEKQAVNQPPEDTPDKNVGDFDGAFTSAAVKIDATYTTPDQSHMAMEPHASMAVWDGNKLTLWTSNQMIDWCRTDLAKTLKVPVENVRIISPYIGGGFGGKLFLRSDALLAALAARAVKRPVKVMLPRPSIPNNTTHRPATLQHLRIGADQSGKITAISHESWSGNLPGGTPETAVQQSELLYAGANRHTGLRLATLDLPEGNAMRAPGEAPGLMALEIAIDELAEKAGIDPVEFRILNDTQVDPADPTRCFSRRQLIECLRTGADKFGWKQRNATPGQVRDGEWLVGHGVAAGFRNNLLEKSGARVHLEQNGTVTVETDMTDIGTGSYTILAQTAAEMLGVPLEQVAVHLGDSSFPVSAGSGGQWGANTSTSGVYAACMKLREMIASAVGFDPEQSQFADGKITNGTRSATLHEATAGGRLTAEESIEFGTLSKEYQQSTFAGHFVEVGVHSATGEVRVRRMLAVCAAGRILNPKTARSQVIGAMTMGMGAALMEELAVDDRLGYFVNHDMAGYEVPVHADIPKQEVIFLDDTDPISSPMKAKGVGELGLCGVSAAIANAVYNATGIRVRDYPITLDKLLDKLPDVV | 6.02 ± 1.7 | 1.06 |  | 6.1 |  |  |  |  | 4.29 ± 0.36 |  |  | 
3 | MKFKTNKLSLNLVLASSLLAASIPAFAVTGDTDQPIHIESDQQSLDMQGNVVTFTGNVIVTQGTIKINADKVVVTRPGGEQGKEVIDGYGKPATFYQMQDNGKPVEGHASQMHYELAKDFVVLTGNAYLQQVDSNIKGDKITYLVKEQKMQAFSDKGKRVTTVLVPSQLQDKNNKGQTPAQKKGN [P0ADV1] | 5.44 ± 0.34 |  | 3.06 ± 0.23 | 5.6321 ± 0.0032 | 10.5 ± 0.36 | 9.99 ± 1.6 | 5.79 ± 0.07 | 11.8 ± 0.99 | 6.48 ± 1.1 | 6.38 ± 0.74 | 6.18 ± 0.62 | 5.73 ± 0.082
4 | MKFVKYFLILAVCCILLGAGSIYGLYRYIEPQLPDVATLKDVRLQIPMQIYSADGELIAQYGEKRRIPVTLDQIPPEMVKAFIATEDSRFYEHHGVDPVGIFRAASVALFSGHASQGASTITQQLARNFFLSPERTLMRKIKEVFLAIRIEQLLTKDEILELYLNKIYLGYRAYGVGAAAQVYFGKTVDQLTLNEMAVIAGLPKAPSTFNPLYSMDRAVARRNVVLSRMLDEGYITQQQFDQTRTEAINANYHAPEIAFSAPYLSEMVRQEMYNRYGESAYEDGYRIYTTITRKVQQAAQQAVRNNVLDYDMRHGYRGPANVLWKVGESAWDNNKITDTLKALPTYGPLLPAAVTSANPQQATAMLADGSTVALSMEGVRWARPYRSDTQQGPTPRKVTDVLQTGQQIWVRQVGDAWWLAQVPEVNSALVSINPQNGAVMALVGGFDFNQSKFNRATQALRQVGSNIKPFLYTAAMDKGLTLASMLNDVPISRWDASAGSDWQPKNSPPQYAGPIRLRQGLGQSKNVVMVRAMRAMGVDYAAEYLQRFGFPAQNIVHTESLALGSASFTPMQVARGYAVMANGGFLVDPWFISKIENDQGGVIFEAKPKVACPECDIPVIYGDTQKSNVLENNDVEDVAISREQQNVSVPMPQLEQANQALVAKTGAQEYAPHVINTPLAFLIKSALNTNIFGEPGWQGTGWRAGRDLQRRDIGGKTGTTNSSKDAWFSGYGPGVVTSVWIGFDDHRRNLGHTTASGAIKDQISGYEGGAKSAQPAWDAYMKAVLEGVPEQPLTPPPGIVTVNIDRSTGQLANGGNSREEYFIEGTQPTQQAVHEVGTTIIDNGEAQELF | 5.593 ± 0.05 | 5.49 ± 0.056 | 3.35 ± 0.36 | 5.7 ± 0.38 | 10.82 ± 0.022 | 10.2 ± 0.59 | 4.46 ± 0.3 | 7.61 ± 0.27 | 6.37 ± 1.3 | 5.4453 ± 0.0032 | 5.3 ± 0.31 | 5.08 ± 0.37
5 | MKFWRPGITGKLFLAIFATCIVLLISMHWAVRISFERGFIDYIKHGNEQRLQLLSDALGEQYAQHGNWRFLRNNDRFVFQILRSFEHDNSEDKPGPGMPPHGWRTQFWVVDQNNKVLVGPRAPIPPDGTRRPILVNGAEVGAVIASPVERLTRNTDINFDKQQRQTSWLIVALATLLAALATFLLARGLLAPVKRLVDGTHKLAAGDFTTRVTPTSEDELGKLAQDFNQLASTLEKNQQMRRDFMADISHELRTPLAVLRGELEAIQDGVRKFTPETVASLQAEVGTLTKLVDDLHQLSMSDEGALAYQKAPVDLIPLLEVAGGAFRERFASRGLKLQFSLPDSITVFGDRDRLMQLFNNLLENSLRYTDSGGSLQISAGQRDKTVRLTFADSAPGVSDDQLQKLFERFYRTEGSRNRASGGSGLGLAICLNIVEAHNGRIIAAHSPFGGVSITVELPLERDLQREV | 6.52 ± 0.079 | 6.22 ± 0.26 | 3.33 ± 0.098 |  | 11.3 ± 2.3 | 12.9 ± 0.13 | 6.86 ± 0.52 | 12.1 ± 1.4 | 6.08 ± 0.73 | 6.4 ± 0.69 | 5.49 ± 0.43 | 6.23 ± 0.92
6 | MKGGKRVQTARPNRINGEIRAQEVRLTGLEGEQLGIVSLREALEKAEEAGVDLVEISPNAEPPVCRIMDYGKFLYEKSKSSKEQKKKQKVIQVKEIKFRPGTDEGDYQVKLRSLIRFLEEGDKAKITLRFRGREMAHQQIGMEVLNRVKDDLQELAVVESFPTKIEGRQMIMVLAPKKKQ [P0A707] | 5.98 ± 0.11 | 5.66 ± 0.61 | 3.35 ± 0.084 | 5.555 ± 0.039 | 10.5 ± 0.76 | 10.9 ± 1.7 | 4.89 ± 0.27 | 10.4 ± 0.88 | 6.492 ± 0.032 | 5.02 ± 0.54 | 5.12 ± 0.1 | 4.69 ± 0.57
